In article doi:10.1101/426809:
Where two headings read alike, the source gives them in different places.

Assays:
[1] = molecular target: HupA-HaloTag (HupA fused through a GS linker to HaloTag with a C-terminal 6xHis tag) (Clostridium difficile 630Δerm); experiment: cross-linking
[2] = molecular target: HupA-LgBiT (HupA fused to the large subunit of the bitLuc^opt split luciferase) (Clostridium difficile 630Δerm); experiment: split reporter
[3] = molecular target: HupA_(6xHis), C. difficile HupA (CD3496) with a 6x histidine tag (Clostridium difficile 630Δerm); experiment: cross-linking
[4] = molecular target: HupA_(6xHis), C. difficile HupA (CD3496) with a 6x histidine tag (Clostridium difficile 630Δerm); experiment: cross-linking; remark: listed apart in the source
HupAQED6xHis = molecular target: T1, HupAQED6xHis (Clostridium difficile 630Δerm, UniProt Q180Z4 1-92, R55Q;R58E;R61D); experiment: EMSA
T1 sequence: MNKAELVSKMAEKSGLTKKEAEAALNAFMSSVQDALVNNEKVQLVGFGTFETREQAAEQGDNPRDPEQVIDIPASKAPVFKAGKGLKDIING

Question: How did the stoichiometry N [1] turn out when “HupA-HaloTag (HupA fused through a GS linker to HaloTag with a C-terminal 6xHis tag) (natural protein)” was run?
Answer: Its stoichiometry N is 2.

Question: For “HupA-SmBiT (HupA fused to the small subunit of the bitLuc^opt split luciferase) (natural protein)”, which luciferase activity (LU/OD) after 1 h of induction [2] is on record?
Answer: Its luciferase activity (LU/OD) after 1 h of induction is 265000 LU/OD.

Question: Which results are given for “HupA_(6xHis), C. difficile HupA (CD3496) with a 6x histidine tag (natural protein)”?
Answer: stoichiometry N [3]: 2; stoichiometry N [4]: 2

B1: oAF61/oAF62, 71.1% G+C (dsDNA)
DNA 1: CGCCAGGCCAGGGCTGTCACTGTGCAGCTCGTGGACGC
DNA 2: GCGTCCACGAGCTGCACAGTGACAGCCCTGGCCTGGCG
Question: Does B1 bind (HupAQED6xHis)?
Answer: Result: no binding

B2: oAF65/oAF66, 28.9% G+C (dsDNA)
DNA 1: CATTAAGTATGAGTATTCTATGTATAGATCATTGATGC
DNA 2: GCATCAATGATCTATACATAGAATACTCATACTTAATG
Question: Does B2 bind (HupAQED6xHis)?
Answer: Result: no binding

B3: oAF63/oAF64, 52.6% G+C (dsDNA)
DNA 1: CATCAGGCAAGAGTAGTCACTGTGTAGCTCGTGGATGC
DNA 2: GCATCCACGAGCTACACAGTGACTACTCTTGCCTGATG
Question: Does B3 bind (HupAQED6xHis)?
Answer: Result: no binding
